Reference: the supplement of paper PMC10567573

B1: PI4K2A (parent)
chain: FVKDPQGRIIAVFKPKNEEPYGHL

Variants of: B1
Test: protein stability index of a GFP-peptide fusion (GPS, HEK-293T) (PSI 1-6); higher = more stable
Details: c terminus: a fixed tail appended
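Also: lentivirally expressed fusions sorted by FACS into six bins by GFP to DsRed ratio, PSI derived from sequencing read proportions per bin multiplied by bin number.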

Variant	protein stability index
FVKDPQGAIIAVFKPKNEEPYGHL [R8A]	2.51
FVKDPQGNIIAVFKPKNEEPYGHL [R8N]	1.31
FVKDPQGRIIAVCKPKNEEPYGHL [F13C]	2.48
FVKDPQGRIIAVSKPKNEEPYGHL [F13S]	1.38
FVKDPQGRIIAVWKPKNEEPYGHL [F13W]	2.13
FVKDPQGRIIAVEKPKNEEPYGHL [F13E]	2.05
FVKDPQGRIIAVHKPKNEEPYGHL [F13H]	2.24
FVKDPQGRIIAVYKPKNEEPYGHL [F13Y]	2.18
FVKDPQGRIIAVRKPKNEEPYGHL [F13R]	1.93
FVKDPQGRIIAVVKPKNEEPYGHL [F13V]	1.92
FVKDPQGRIIAVLKPKNEEPYGHL [F13L]	1.96
FVKDPQGRIIAVGKPKNEEPYGHL [F13G]	1.39
FVKDPQGRIIAVQKPKNEEPYGHL [F13Q]	2.13
FVKDPQGRIIAVTKPKNEEPYGHL [F13T]	1.94
FVKDPQGRIIAVPKPKNEEPYGHL [F13P]	2.3
FVKDPQGRIIAVIKPKNEEPYGHL [F13I]	2.5
FVKDPQGRIIAVMKPKNEEPYGHL [F13M]	1.28
FVKDPQGRIIAVNKPKNEEPYGHL [F13N]	1.99
FVKDPQGRIIAVKKPKNEEPYGHL [F13K]	1.58
FVKDPQGRIIAVAKPKNEEPYGHL [F13A]	1.55
FVKDPQGRIIAVDKPKNEEPYGHL [F13D]	1.43
FVKDPQGRIIPVFKPKNEEPYGHL [A11P]	3.18
FVKDPQGRIICVFKPKNEEPYGHL [A11C]	1.27
FVKDPQGRIIFVFKPKNEEPYGHL [A11F]	2.49

Variant	protein stability index
FVKDPQGRIIEVFKPKNEEPYGHL [A11E]	2.07
FVKDPQGRIILVFKPKNEEPYGHL [A11L]	1.61
FVKDPQGRIIYVFKPKNEEPYGHL [A11Y]	1.32
FVKDPQGRIIRVFKPKNEEPYGHL [A11R]	3.16
FVKDPQGRIIIVFKPKNEEPYGHL [A11I]	1.37
FVKDPQGRIIQVFKPKNEEPYGHL [A11Q]	3.56
FVKDPQGRIIHVFKPKNEEPYGHL [A11H]	1.41
FVKDPQGRIIWVFKPKNEEPYGHL [A11W]	2.88
FVKDPQGRIIVVFKPKNEEPYGHL [A11V]	1.63
FVKDPQGRIIGVFKPKNEEPYGHL [A11G]	2.72
FVKDPQGRIIDVFKPKNEEPYGHL [A11D]	2.94
FVKDPQGRIIMVFKPKNEEPYGHL [A11M]	2.01
FVKDPQGRIIKVFKPKNEEPYGHL [A11K]	2.58
FVKDPQGRIIAVFKVKNEEPYGHL [P15V]	1.92
FVKDPQGRIIAVFKTKNEEPYGHL [P15T]	1.27
FVKDPQGRIIAVFKQKNEEPYGHL [P15Q]	2.07
FVKDPQGRIIAVFKIKNEEPYGHL [P15I]	2.13
FVKDPQGRIIAVFKDKNEEPYGHL [P15D]	1.9
FVKDPQGRIIAVFKAKNEEPYGHL [P15A]	2.18
FVKDPQGRIIAVFKEKNEEPYGHL [P15E]	2.37
FVKDPQGRIIAVFKLKNEEPYGHL [P15L]	2.26
FVKDPQGRIIAVFKRKNEEPYGHL [P15R]	2.84
FVKDPQGRIIAVFKCKNEEPYGHL [P15C]	1.66
